Assay results as given in the supplement of paper PMC9112550, “Optimization of the antimicrobial peptide Bac7 by deep mutational scanning” (BMC Biology, 2022).

Test system: Escherichia coli TOP10
Assay: shrunken log2 fold change of peptide-encoding DNA abundance (4.5 h post-induction vs induction); higher = less antimicrobial activity (less host growth inhibition)
Conditions: time post-induction: 4.5 h; library: site-saturation at positions 5, 18, 19, 20
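Note: peptides expressed intracellularly from a pBAD plasmid library in pooled LB shake-flask culture, induced with 0.3% L-arabinose, DNA abundance read by NGS, three biological replicates, DESeq2 with apeglm shrinkage.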

Sequence | shrunken log2 fold change
RRIRARPPRLPRPRPRPDPKPRP | 0.268
RRIRARPPRLPRPRPRPDRTPRP | 0.192
RRIRARPPRLPRPRPRPDTQPRP | 0.374
RRIRARPPRLPRPRPRPDVPPRP | -0.0329
RRIRARPPRLPRPRPRPDWPPRP | 0.98
RRIRARPPRLPRPRPRPDYKPRP | -0.0382
RRIRARPPRLPRPRPRPEADPRP | 1.53
RRIRARPPRLPRPRPRPECKPRP | 0.769
RRIRARPPRLPRPRPRPEDHPRP | 0.392
RRIRARPPRLPRPRPRPEEHPRP | -0.0106
RRIRARPPRLPRPRPRPEFVPRP | 1.05
RRIRARPPRLPRPRPRPEGFPRP | 0.566
RRIRARPPRLPRPRPRPEGWPRP | 1.38
RRIRARPPRLPRPRPRPEGYPRP | 0.582
RRIRARPPRLPRPRPRPEHWPRP | 0.261
RRIRARPPRLPRPRPRPEPPPRP | 1.27
RRIRARPPRLPRPRPRPEQIPRP | 0.419
RRIRARPPRLPRPRPRPEQVPRP | 0.453
RRIRARPPRLPRPRPRPESQPRP | 0.454
RRIRARPPRLPRPRPRPETCPRP | 0.331
RRIRARPPRLPRPRPRPEWCPRP | 0.72
RRIRARPPRLPRPRPRPEYPPRP | 0.0126
RRIRARPPRLPRPRPRPFAPPRP | 0.61
RRIRARPPRLPRPRPRPFEFPRP | 0.0786
RRIRARPPRLPRPRPRPFFQPRP | 0.107
RRIRARPPRLPRPRPRPFFVPRP | 0.149
RRIRARPPRLPRPRPRPFGMPRP | 0.0196
RRIRARPPRLPRPRPRPFHAPRP | -0.0904

Sequence | shrunken log2 fold change
RRIRARPPRLPRPRPRPFHKPRP | -0.148
RRIRARPPRLPRPRPRPFKMPRP | -0.253
RRIRARPPRLPRPRPRPFLPPRP | -0.379
RRIRARPPRLPRPRPRPFLWPRP | -0.0716
RRIRARPPRLPRPRPRPFMHPRP | 0.229
RRIRARPPRLPRPRPRPFQEPRP | 0.127
RRIRARPPRLPRPRPRPFRNPRP | -0.575
RRIRARPPRLPRPRPRPFTDPRP | 0.128
RRIRARPPRLPRPRPRPFTKPRP | -0.295
RRIRARPPRLPRPRPRPFVAPRP | 0.254
RRIRARPPRLPRPRPRPFVPPRP | -0.0963
RRIRARPPRLPRPRPRPFWGPRP | 0.0148
RRIRARPPRLPRPRPRPFYAPRP | -0.066
RRIRARPPRLPRPRPRPFYGPRP | -0.0165
RRIRARPPRLPRPRPRPFYKPRP | -0.009
RRIRARPPRLPRPRPRPFYPPRP | -0.104
RRIRARPPRLPRPRPRPFYYPRP | -0.485
RRIRARPPRLPRPRPRPGAFPRP | 0.454
RRIRARPPRLPRPRPRPGCIPRP | 0.315
RRIRARPPRLPRPRPRPGCLPRP | 0.419
RRIRARPPRLPRPRPRPGDVPRP | 0.194
RRIRARPPRLPRPRPRPGEYPRP | 0.0829
RRIRARPPRLPRPRPRPGFHPRP | 0.245
RRIRARPPRLPRPRPRPGFMPRP | 0.14
RRIRARPPRLPRPRPRPGGKPRP | 0.563
RRIRARPPRLPRPRPRPGGWPRP | 1.26
RRIRARPPRLPRPRPRPGHAPRP | 0.16
